The values that follow come from PMC11079029, “Intramolecular autoinhibition regulates the selectivity of PRPF40A tandem WW domains for proline-rich motifs” (Nature Communications, 2024).

B1: GB1-SF3A1 C-ter Pro (residues 552-683) (domain or fragment, UniProt Q15459 552-683, looked up)
chain: EIPQQPPPPSSATNIPSSAPPITSVPRPPTMPPPVRTTVVSAVPVMPRPPMASVVRLPPGSVIAPMPPIIHAPRINVVPMPPSAPPIMAPRPPPMIVPTAFVPAPPVAPVPAPAPMPPVHPPPPMEDEPTSK
notes: His6-GB1-TEV site cassette of the pET24 vector, not cleaved; source: E. coli BL21(DE3), purified (Ni-NTA, SEC); not shown: GB1, N-terminal, kept
B2: GB1-SF1 Pro BCD (residues 468-639) (domain or fragment, UniProt Q15637 468-639, looked up)
chain: GMMPPPPMGMMPPPPPPPSGQPPPPPSGPLPPWQQQQQQPPPPPPPSSSMASSTPLPWQQNTTTTTTSAGTGSIPPWQQQQAAAAASPGAPQMQGNPTMVPLPPGVQPPLPPGAPPPPPPPPPGSAGMMYAPPPPPPPPMDPSNFVTMMGMGVAGMPPFGMPPAPPPPPPQN
notes: splicing factor 1 (SF1), residues 468-639; His6-GB1-TEV site cassette of the pET24 vector, not cleaved; source: E. coli BL21(DE3), purified (Ni-NTA, SEC); not shown: GB1, N-terminal, kept
B3: GB1-SF1 Pro BC (residues 468-594) (domain or fragment, UniProt Q15637 468-594, looked up)
chain: GMMPPPPMGMMPPPPPPPSGQPPPPPSGPLPPWQQQQQQPPPPPPPSSSMASSTPLPWQQNTTTTTTSAGTGSIPPWQQQQAAAAASPGAPQMQGNPTMVPLPPGVQPPLPPGAPPPPPPPPPGSAG
notes: splicing factor 1 (SF1), residues 468-594; His6-GB1-TEV site cassette of the pET24 vector, not cleaved; also called SF1 BC; source: E. coli BL21(DE3), purified (Ni-NTA, SEC); not shown: GB1, N-terminal, kept
B4: GB1-SF1 Pro CD (residues 539-639) (domain or fragment, UniProt Q15637 539-639, looked up)
chain: GSIPPWQQQQAAAAASPGAPQMQGNPTMVPLPPGVQPPLPPGAPPPPPPPPPGSAGMMYAPPPPPPPPMDPSNFVTMMGMGVAGMPPFGMPPAPPPPPPQN
notes: splicing factor 1 (SF1), residues 539-639; His6-GB1-TEV site cassette of the pET24 vector, not cleaved; source: E. coli BL21(DE3), purified (Ni-NTA, SEC); not shown: GB1, N-terminal, kept
B5: GB1-SF1 Pro D (residues 594-639) (domain or fragment, UniProt Q15637 594-639, looked up)
chain: GMMYAPPPPPPPPMDPSNFVTMMGMGVAGMPPFGMPPAPPPPPPQN
notes: splicing factor 1 (SF1), residues 594-639 of the proline-rich C-terminal region; His6-GB1-TEV site cassette of the pET24 vector, not cleaved; source: E. coli BL21(DE3), purified (Ni-NTA, SEC); not shown: GB1, N-terminal, kept
B6: GB1-SF1 Pro B (residues 468-539) (domain or fragment, UniProt Q15637 468-539, looked up)
chain: GMMPPPPMGMMPPPPPPPSGQPPPPPSGPLPPWQQQQQQPPPPPPPSSSMASSTPLPWQQNTTTTTTSAGTG
notes: splicing factor 1 (SF1), residues 468-539 of the proline-rich C-terminal region; His6-GB1-TEV site cassette of the pET24 vector, not cleaved; source: E. coli BL21(DE3), purified (Ni-NTA, SEC); not shown: GB1, N-terminal, kept
B7: GB1-SF1 Pro C (residues 539-594) (domain or fragment, UniProt Q15637 539-594, looked up)
chain: GSIPPWQQQQAAAAASPGAPQMQGNPTMVPLPPGVQPPLPPGAPPPPPPPPPGSAG
notes: splicing factor 1 (SF1), residues 539-594 of the proline-rich C-terminal region (holds the WWbs motif 575-590); His6-GB1-TEV site cassette of the pET24 vector, not cleaved; source: E. coli BL21(DE3), purified (Ni-NTA, SEC); not shown: GB1, N-terminal, kept
B8: GB1-tagged SF1 Pro ABCD (410-639) (domain or fragment, UniProt Q15637 410-639, looked up)
chain: GHPMQHNPNGPPPPWMQPPPPPMNQGPHPPGHHGPPPMDQYLGSTPVGSGVYRLHQGKGMMPPPPMGMMPPPPPPPSGQPPPPPSGPLPPWQQQQQQPPPPPPPSSSMASSTPLPWQQNTTTTTTSAGTGSIPPWQQQQAAAAASPGAPQMQGNPTMVPLPPGVQPPLPPGAPPPPPPPPPGSAGMMYAPPPPPPPPMDPSNFVTMMGMGVAGMPPFGMPPAPPPPPPQN
notes: SF1 residues 410-639, the whole proline-rich C-terminal region; also called complete C-terminal region of SF1; source: E. coli BL21(DE3), purified (Ni-NTA, SEC), GB1 tag kept; not shown: GB1, N-terminal, kept
B9: GB1-tagged SF3A1 Middle Pro (364-413) (domain or fragment, UniProt Q15459 364-413, looked up)
chain: EGQKVPPPPETPMPPPLPPTPDQVIVRKDYDPKASKPLPPAPAPDEYLVS
notes: SF3A1 residues 364-413, proline-rich region with a PPLP motif; also called SF3A1 region (364-413); source: E. coli BL21(DE3), purified (Ni-NTA, SEC), GB1 tag kept; not shown: GB1, N-terminal, kept
B10: GB1-tagged SF1 Pro D (594-639) (domain or fragment, UniProt Q15637 594-639, looked up)
chain: B5 chain
notes: SF1 residues 594-639; also called the very C-terminal region; source: E. coli BL21(DE3), purified (Ni-NTA, SEC), GB1 tag kept; not shown: GB1, N-terminal, kept

For one assay, the target named is T1, PRPF40A WW12 (tandem WW domains, residues 141-236) (human, UniProt O75400 141-236).
T1 construct: A few vector residues probably remain at the N-terminus after TEV cleavage (pETM11, NcoI site); 15N-labelled in the NMR experiments; also called PRPF40A WW tandem; WW12 wt; source: E. coli BL21(DE3), purified (Ni-NTA, TEV digestion, reverse Ni-NTA, SEC); not shown: His6, N-terminal, cleaved
Kind of assay: ITC; PRPF40A construct (WW12, N-ext-WW12 or its mutant) in the cell, GB1-SF1 or GB1-SF3A1 construct in the syringe (as shown in Supplementary Figures 16 and 21); 25 °C, 20 mM sodium phosphate pH 6.5, 100 mM NaCl; one-site binding model; at least duplicates; affinities apparent. The note with it: both partners purified.
For B1, the “stoichiometry N” value is 0.27 ± 0.07 sites.

Take B2: the “stoichiometry N” value is 0.28 ± 0.02 sites.

Take B3: the “stoichiometry N” value was determined as 0.53 ± 0.05 sites.

As for B4, the “stoichiometry N” value turned out to be 0.39 ± 0.02 sites.

The next assay has as its target T1, PRPF40A WW12 (tandem WW domains, …). Kind of assay: ITC; GB1-peptide or GB1-SF1 construct in the cell, PRPF40A WW12 in the syringe (as shown in Supplementary Figures 7 and 16A); 25 °C, 20 mM sodium phosphate pH 6.5, 100 mM NaCl; one-site binding model; at least duplicates; affinities apparent. The settings on record: both partners purified. For orientation: In ITC the heat of successive injections is recorded.
Consider PPPPPPPPPPPPPPPP [GB1-polyproline peptide P16], for which the Kd is 3.35 ± 0.27 µM.

Take B5: the Kd was determined as 10.1 ± 4.2 µM.

PPPPPPPPPPPPPPPPPPP [GB1-polyproline peptide P19]: the Kd is 6.76 ± 0.96 µM.

Turning to B6, the Kd came out at 20.6 ± 4.9 µM.

With PPPPPPPPPPPPPPPPPPPPPP [GB1-polyproline peptide P22], the Kd is 9.29 ± 0.88 µM.

On to B7, for which the Kd amounted to 2.02 ± 0.09 µM.

For the next assay, the target named is T2, PRPF40A WW12 (tandem WW domains, residues 141-236) (human, UniProt O75400 141-236).
T2 construct: pETM11 vector, NcoI/KpnI; 15N or 13C,15N labelled for NMR; also called PRPF40A WW tandem; PRPF40A tandem WW domains; source: E. coli BL21(DE3), purified (Ni-NTA, TEV, reverse Ni-NTA, SEC); not shown: His6, N-terminal, cleaved
Nature of the assay: ITC; GB1-tagged SF1/SF3A1 constructs in the syringe and the WW tandem in the cell; 25 °C, 20 mM sodium phosphate pH 6.5, 100 mM NaCl; one-site model; apparent affinities. The settings on record: both partners purified.
As for B8, the “stoichiometry N” value was 3 PRPF40A tandems per SF1 construct.

For B9, the Kd was approximately 10 µM.

For B10, the Kd was approximately 10 µM.

By stoichiometry N is commonly meant the number of molecules, sites or subunits per partner or assembly.
